In patent US6569419B2, “Methods for promoting production of myelin by Schwann cells” (ZymoGenetics, Inc., priority 2000, dated 2003):

B1: A275 F: Solution of murine Zcyto7 expressed in BHK cells, 1 mg/ml of PBS at pH 6.0 (protein, UniProt Q9QXT6 23-180, looked up)
Interleukin-17B: RNTKGKRKGQGRPSPLAPGPHQVPLDLVSRVKPYARMEEYERNLGEMVAQLRNSSEPAKKKCEVNLQLWLSNKRSLSPWGYSINHDPSRIPADLPEARCLCLGCVNPFTMQEDRSMVSVPVFSQVPVRRRLCPQPPRPGPCRQRVVMETIAVGCTCIF
B2: A258 G: Solution of human Zcyto7 expressed in BHK cells, 0.089 mg/ml of PBS+0.1% BSA at pH 6.0 (protein, UniProt Q9UHF5 21-180, looked up)
Interleukin-17B: QPRSPKSKRKGQGRPGPLAPGPHQVPLDLVSRMKPYARMEEYERNIEEMVAQLRNSSELAQRKCEVNLQLWMSNKRSLSPWGYSINHDPSRIPVDLPEARCLCLGCVNPFTMQEDRSMVSVPVFSQVPVRRRLCPPPPRTGPCRQRAVMETIAVGCTCIF

Tested on: primary Schwann cells
Assay: MBP induction in pure Schwann cell cultures (Western blot, densitometry)
Format: cell-based, rat
Settings: for Mean MBP induction (as percent of progesterone induction): pure Schwann cells, 48 h, mean ± SD; for MBP accumulation (in words): in the absence of progesterone pretreatment
Method: Primary Schwann cell cultures and dorsal root ganglia (DRG)-Schwann cell co-cultures were established. Rat primary Schwann cells were isolated as described by Einheber et al., J. Cell Biol. 123:1223-1236 (1994). Schwann cells were grown in 100 mm poly-L-lysine coated plates in Dulbecco's modified Eagles medium (DMEM) supplemented with 10% fetal bovine serum (FBS), pituitary extract (1 mg/ml) and 10 μM forskolin; up to 80-90% confluency.
The effect of Zcyto7 was tested in pure Schwann cell culture and in a co-culture of DRG and Schwann cells. Primary Schwann cells were grown to 80-90% confluency in 100 mm plates as described above. 12 h before treatment media was changed to 10 ml of N2 (defined medium) with or without 1 μM progesterone. The Zcyto7 solutions were added as 1.1 ml of 10×solution in N2 media, and cells were incubated for 48 hours (h). Cells were washed once with Hanks balanced salt solution (HBSS). The cell suspension was frozen on dry ice, thawed, pelleted and resuspended in 100 μl of lysis buffer, 125 mM tris (hydroxymethyl) aminomethane HCl (Tris HCl) pH7.0, 15% sucrose, 4% sodium dodecyl sulfate (SDS), 10 mM ethylenediaminetetraacetic acid (EDTA). Lysates were boiled for 5 minutes (min) on a water bath and cooled on ice. The protein concentration was determined using 4 μl in a BioRad BCA assay. Each sample was then supplemented with dithiothreitol (DTT) to a final concentration of 10 mM phenylmethylsulfonyl fluoride (PMSF)—to 2 mM, pepstatin and leupeptin—to 10 μg/ml.
60 μg of protein from each sample were separated on 4-12% Tris-Glycin NOVEX gels at 125 V constant for 1.5 h. Each gel contained vehicle control, vehicle supplemented with progesterone control, and randomly chosen samples from treatment groups. Transfer to poly (vinylidine difluoride) (PVFD) membrane was carried out according to the NOVEX electrotransfer protocol, at 25 V, for 40 min. Membranes were rinsed with tris buffered saline (TBS) for 3 min, and blocked with TBS/0.1% TWEEN-20/2% BSA for 1 h. Membranes were then incubated with 1:1000 dilution of anti-MBP mouse monoclonal IgG (Boehringer, Mannheim) in TBS/0.1% TWEEN-20, 0.5% BSA overnight, at 4° C. After washing 4 times for 30 min with TBS/0.1% TWEEN-20, membranes were incubated with anti-mouse horseradish peroxidase conjugate (1:20,000 dilution in TBS/0.1% TWEEN-20, incubated with SUPERSIGNAL chemiluminescent HRP substrate (Pierce Chemical Co., Rockford, Ill.) and exposed to Kodak X-Ray film for 15-20 min.
Density of myelin basic protein (MBP) bands was measured on LYNX Densitometer (Applied imaging) with ILLUMA System and expressed as percent progesterone-induced control MBP.
In experiment 1, the effect of the 4 different solutions of Zcyto7 on MBP accumulation was evaluated in pure Schwann cell cultures, with and without progesterone pretreatment. Solution A275F was evaluated in experiment 1 at 1 ng/ml, 10 ng/ml, 100 ng/ml and 1 μg/ml.
Four controls were included in each experiment: test vehicle alone, vehicle supplemented with progesterone, vehicle supplemented with IL-17, and vehicle supplemented with progesterone and IL-17 [See J. Immunol, 150:5445-5456 (1993)]. Three replicates were set up per each condition.

[1] = 100 ng/ml, without progesterone

Row | Molecule | Mean MBP induction (as percent of progesterone induction) (1 ng/ml, without progesterone) | Mean MBP induction (as percent of progesterone induction) (10 ng/ml, without progesterone) | MBP accumulation (in words) (100 ng/ml) | Mean MBP induction (as percent of progesterone induction) [1] | Mean MBP induction (as percent of progesterone induction) (1 μg/ml, without progesterone) | Mean MBP induction (as percent of progesterone induction) (Prog + 1 ng/ml) | Mean MBP induction (as percent of progesterone induction) (Prog + 10 ng/ml) | Mean MBP induction (as percent of progesterone induction) (Prog + 100 ng/ml) | Mean MBP induction (as percent of progesterone induction) (Prog + 1 μg/ml)
1 | B1 | 102.40 ± 21.33% of progesterone induction | 123.40 ± 50.34% of progesterone induction | significantly induced MBP accumulation | 210.60 ± 9708% of progesterone induction | 170.90 ± 49.63% of progesterone induction | 48.77 ± 45.44% of progesterone induction | 121.00 ± 78.16% of progesterone induction | 278.00 ± 95.43% of progesterone induction | 280.80 ± 62.95% of progesterone induction
2 | B2 |  |  | significantly induced MBP accumulation | 210 ± 115.20% of progesterone induction |  |  |  | 152 ± 19.38% of progesterone induction | 
